Laboratory results as given in the supplement of paper PMC11246515.
± gives the standard deviation of the averaged measurements.

Assay: total protein half-life in vivo (active degradation + dilution); higher = more stable protein
[1] = E. coli NCM3722 delta-clpP delta-lon delta-hslV, growth: N-lim chemostat, doubling time 6 h
[2] = E. coli NCM3722 delta-clpP, growth: N-lim chemostat, doubling time 6 h
[3] = E. coli NCM3722 delta-hslV, growth: N-lim chemostat, doubling time 6 h
[4] = E. coli NCM3722 delta-lon, growth: N-lim chemostat, doubling time 6 h
[5] = E. coli NCM3722 delta-smpB, growth: N-lim chemostat, doubling time 6 h
[6] = wild type E. coli NCM3722, growth: C-lim chemostat, doubling time 3 h
[7] = wild type E. coli NCM3722, growth: C-lim chemostat, doubling time 6 h
[8] = wild type E. coli NCM3722, growth: C-lim chemostat, doubling time 12 h
[9] = wild type E. coli NCM3722, growth: N-lim chemostat, doubling time 6 h
[10] = wild type E. coli NCM3722, growth: N-lim chemostat, doubling time 12 h
[11] = wild type E. coli NCM3722, growth: P-lim chemostat, doubling time 6 h
[12] = wild type E. coli NCM3722, growth: P-lim chemostat, doubling time 12 h

Sequence	total protein half-life in vivo [1] [h]	total protein half-life in vivo [2] [h]	total protein half-life in vivo [3] [h]	total protein half-life in vivo [4] [h]	total protein half-life in vivo [5] [h]	total protein half-life in vivo [6] [h]	total protein half-life in vivo [7] [h]	total protein half-life in vivo [8] [h]	total protein half-life in vivo [9] [h]	total protein half-life in vivo [10] [h]	total protein half-life in vivo [11] [h]	total protein half-life in vivo [12] [h]
MSVIGRIHSFESCGTVDGPGIRFITFFQGCLMRCLYCHNRDTWDTHGGKEVTVEDLMKEVVTYRHFMNASGGGVTASGGEAILQAEFVRDWFRACKKEGIHTCLDTNGFVRRYDPVIDELLEVTDLVMLDLKQMNDEIHQNLVGVSNHRTLEFAKYLANKNVKVWIRYVVVPGWSDDDDSAHRLGEFTRDMGNVEKIELLPYHELGKHKWVAMGEEYKLDGVKPPKKETMERVKGILEQYGHKVMF [P0A9N4]	4.86 ± 0.073	5.05 ± 1.6	5.08 ± 0.1	4.485 ± 0.029	3.9 ± 0.28	2.9 ± 0.1	5.48 ± 1	9.78 ± 0.27	4.41 ± 0.36	6.62 ± 0.36	4.78 ± 0.3	10.1 ± 0.91
MFSIKPGPRNLPIDNPTLLSWNITDGDLNSKLNTLEYLNCITNIINSCGVYPQGLKDREIISTFHAEKVINDLLKNDYKISLSPDTTYRELNKAAQRSITAPDRIGERKTWVYQRDTMIERGDNSGVYQYGRAEHFTHIISDKPSPKDKYVAYAINIPDYELAADVYNINVTSPSGQQETFKILINLEHLRQTLERKSLTAVQKSQCEIITPKKPGEAILHAFNATYQQIRENMSEFARCHYGYIQIPPVTTFRADGPETPEEEKGYWFHAYQPEDLCTIHNPMGDLQDFIALVKDAKKFGIDIIPDYTFNFMGIGGSGKNDLDYPSADIRAKISKDIEGGIPGYWQGQVLIPFIKDPVTKERKQIHPEDIHLTAKDFEASKDNISKDEWENLHALKEKRLNGMPKTTPKSDQVIMLQNQYVREMRKYGVRGLRYDAAKHSKHEQIERSITPPLKNYNERLHNTNLFNPKYHKKAVMNYMEYLVTCQLDEQQMSSLLYERDDLSAIDFSLLMKTIKAFSFGGDLQTLASKPGSTISSIPSERRILININHDFPNNGNLFNDFLFNHQQDEQLAMAYIAALPFSRPLVYWDGQVLKSTTEIKNYDGSTRVGGEAWLNKGCSTYQQLYNEFHALYIDKAGIWSAFEGVSATKNVLAFSRGDSVNINHSPHDGLVIINKGNEEVEGTWPNKLQPGIYKNMGSNSVNIIINNTRKIIPPGKVFTLRGGTLNINIPGRSALLLGKTGEPPNYLYL	4.26 ± 0.095	3.78	3.6 ± 0.55	3.86 ± 0.15	3.93 ± 0.2	3.14 ± 0.21	4.93	9.02	3.51	5.65	4.45	11.3 ± 3.7
MDYEFLRDITGVVKVRMSMGHEVVGHWFNEEVKENLALLDEVEQAAHALKGSERSWQRAGHEYTLWMDGEEVMVRANQLEFAGDEMEEGMNYYDEESLSLCGVEDFLQVVAAYRNFVQQK [P0A8E5]	4.89 ± 0.087		1.63 ± 0.034	2 ± 0.21	1.97 ± 0.039	2.18 ± 0.056	3.78 ± 0.4	6.328 ± 0.025	1.78	2.8	2.44 ± 0.26	4.45 ± 0.61
MLLNALASLGHKGIKTLRTFGRAGLMLFNALVGKPEFRKHAPLLVRQLYNVGVLSMLIIVVSGVFIGMVLGLQGYLVLTTYSAETSLGMLVALSLLRELGPVVAALLFAGRAGSALTAEIGLMRATEQLSSMEMMAVDPLRRVISPRFWAGVISLPLLTVIFVAVGIWGGSLVGVSWKGIDSGFFWSAMQNAVDWRMDLVNCLIKSVVFAITVTWISLFNGYDAIPTSAGISRATTRTVVHSSLAVLGLDFVLTALMFGN		6.31	6.03	4.82	5.29	3.19			7.45	11.3	> 8	11.55 ± 0.11
MNPLLTDSRRQALRSASHWYAVLSGERVSPQQEARWQQWYEQDQDNQWAWQQVENLRNQLGGVPGDVASRALHDTRLTRRHVMKGLLLLLGAGGGWQLWQSETGEGLRADYRTAKGTVSRQQLEDGSLLTLNTQSAADVRFDAHQRTVRLWYGEIAITTAKDALQRPFRVLTRQGQLTALGTEFTVRQQDNFTQLDVQQHAVEVLLASAPAQKRIVNAGESLQFSASEFGAVKPLDDESTSWTKDILSFSDKPLGEVIATLTRYRNGVLRCDPAVAGLRLSGTFPLKNTDAILNVIAQTLPVKIQSITRYWINISPL					0.672							
MKSVFTISASLAISLMLCCTAQANDHKLLGAIAMPRNETNDLALKLPVCRIVKRIQLSADHGDLQLSGASVYFKAARSASQSLNIPSEIKEGQTTDWININSDNDNKRCVSKITFSGHTVNSSDMATLKIIGDD		3.9			5.9		4.34			13		8.91
MSNVQEWQQLANKELSRREKTVDSLVHQTAEGIAIKPLYTEADLDNLEVTGTLPGLPPYVRGPRATMYTAQPWTIRQYAGFSTAKESNAFYRRNLAAGQKGLSVAFDLATHRGYDSDNPRVAGDVGKAGVAIDTVEDMKVLFDQIPLDKMSVSMTMNGAVLPVLAFYIVAAEEQGVTPDKLTGTIQNDILKEYLCRNTYIYPPKPSMRIIADIIAWCSGNMPRFNTISISGYHMGEAGANCVQQVAFTLADGIEYIKAAISAGLKIDDFAPRLSFFFGIGMDLFMNVAMLRAARYLWSEAVSGFGAQDPKSLALRTHCQTSGWSLTEQDPYNNVIRTTIEALAATLGGTQSLHTNAFDEALGLPTDFSARIARNTQIIIQEESELCRTVDPLAGSYYIESLTDQIVKQARAIIQQIDEAGGMAKAIEAGLPKRMIEEASAREQSLIDQGKRVIVGVNKYKLDHEDETDVLEIDNVMVRNEQIASLERIRATRDDAAVTAALNALTHAAQHNENLLAAAVNAARVRATLGEISDALEVAFDRYLVPSQCVTGVIAQSYHQSEKSASEFDAIVAQTEQFLADNGRRPRILIAKMGQDGHDRGAKVIASAYSDLGFDVDLSPMFSTPEEIARLAVENDVHVVGASSLAAGHKTLIPELVEALKKWGREDICVVAGGVIPPQDYAFLQERGVAAIYGPGTPMLDSVRDVLNLISQHHD						3.42						
